Measured values: patent US10934529B2, “Three dimensional hydrogels for culturing organoids” (Ecole Polytechnique Fèdèrale de Lausanne, priority 2015, dated 2021)
“Also recorded” adds a separate entry of the source.

System: intestinal stem cells (ISCs)
Assay: ISC colony formation efficiency / ISC expansion in hydrogels
Type: cell-based, mouse
Conditions: PEG-RGD, Wnt3a-containing medium
Description: Freshly isolated crypts or single cells from dissociated colonies were added to the Matrigel or hydrogels precursor solution and cast in 20-μL droplets at the bottom of wells in 24-well plate. […] For single cell culture, thiazovivin (2.5 μM; Stemgent) and Jagged-1 peptide ([…]; Anaspec) was included in the medium during the first two days. Broad spectrum protease inhibitor, GM6001, was added to the medium while embedding the cells in PEG hydrogels. Every two days the growth factors were replenished and the full medium was changed.
To quantify the colony formation efficiency of single embedded ISCs, phase contrast z-stacks spanning the entire thickness of the cell-laden Matrigel or PEG gels were collected (Zeiss Axio Observer Z1) at 5 different locations within the gels. The Cell Counter plugin in ImageJ (NIH) was used to quantify the fraction of cells which had formed colonies at day 4 after seeding. To assess the viability of intestinal tissue fragments embedded in PEG, phase contrast images of the entire gel were collected. The fraction of viable tissues was estimated based upon the epithelial morphology: tissues that featured an epithelial monolayer surrounding a central lumen after 24 h of embedding were deemed viable.

B1: Wnt3a: recombinant Wnt3a (protein, UniProt P56704 19-352, looked up)
Protein Wnt-3a: SYPIWWSLAVGPQYSSLGSQPILCASIPGLVPKQLRFCRNYVEIMPSVAEGIKIGIQECQHQFRGRRWNCTTVHDSLAIFGPVLDKATRESAFVHAIASAGVAFAVTRSCAEGTAAICGCSSRHQGSPGKGWKWGGCSEDIEFGGMVSREFADARENRPDARSAMNRHNNEAGRQAIASHMHLKCKCHGLSGSCEVKTCWWSQPDFRAIGDFLKDKYDSASEMVVEKHRESRGWVETLRPRYTYFKVPTERDLVYYEASPNFCEPNPETGSFGTRDRTCNVSSHGIDGCDLLCCGRGHNARAERRREKCRCVFHWCCYVSCQECTRVYDVHTCK
- ISC culture with Wnt3a instead of CHIR99021 and valproic acid: successfully cultured; also recorded: can successfully replace CHIR99021 and VPA
